The source of these data is paper PMC5561080, “The Gαi-GIV binding interface is a druggable protein-protein interaction” (Scientific Reports, 2017).

Read-outs that look alike come from different tables or passages of the source. No end group written: not given here. 5,6‑carboxyfluorescein = 5,6-carboxyfluorescein

One may read the IC50 as the concentration that inhibits the measured activity by half. As usually defined, the Kd is the concentration at which binding is half-saturated. Lower therefore signals tighter binding.

First the molecules themselves.
B6: human His-GIV-CT (1660–1870) (domain or fragment, UniProt Q3V6T2-3 1660-1870, looked up)
chain: SETLESRHHKIKTGSPGSEVVTLQQFLEESNKLTSVQIKSSSQENLLDEVMKSLSVSSDFLGKDKPVSCGLARSVSGKTPGDFYDRRTTKPEFLRPGPRKTEDTYFISSAGKPTPGTQGKIKLVKESSLSRQSKDSNPYATLPRASSVISTAEGTTRRTSIHDFLTKDSRLPISVDSPPAAADSNTTAASNVDKVQESRNSKSRSREQQSS
notes: also called His-tagged GIV 1660–1870; source: E. coli BL21(DE3), purified (HisPur Cobalt resin, dialysed against PBS)

In test [1] the target is T1, rat GST-Gαi3 (Rattus norvegicus, UniProt P08753).
T1 construct: gene Gnai3
The test is described as follows: AlphaScreen protein-protein binding inhibition. Particulars: displacement of His-GIV-CT 1660-1870 (75 nM each protein); GDP 30 µM, 5 mM MgCl2, pH 7.4, room temperature. (Bead proximity is the source of the signal in Alpha formats.)

The next test deals with T2, human Gαi3 (Homo sapiens, UniProt P08754).
T2 construct: gene GNAI3
Briefly: 1H-15N TROSY NMR titration, chemical shift perturbation. The class given is binding. The conditions noted are these: GDP-bound, pH 7.0, 30 °C, 10 mM MgCl2; site SwII/α3/W258 region.

The target in test [2] is T3, rat His-Gαi3 (Rattus norvegicus, UniProt P08753).
T3 construct: gene Gnai3
The test is described as follows: fluorescence polarization competition. The test is classed as binding. (In general: Fluorescence polarisation rises when a labelled molecule tumbles more slowly, as on binding a larger partner.)

For test [3], the target named is T1, rat GST-Gαi3. The test is described as follows: AlphaScreen protein-protein binding inhibition. The conditions noted are these: displacement of His-GIV-CT 1660-1870 (75 nM each protein); GDP 30 µM, 5 mM MgCl2, pH 7.4, room temperature. The source holds these as a separate data set.
Test [4] addresses T4, rat His-Gαi3 (rat, UniProt P08753 1-354).
T4 chain: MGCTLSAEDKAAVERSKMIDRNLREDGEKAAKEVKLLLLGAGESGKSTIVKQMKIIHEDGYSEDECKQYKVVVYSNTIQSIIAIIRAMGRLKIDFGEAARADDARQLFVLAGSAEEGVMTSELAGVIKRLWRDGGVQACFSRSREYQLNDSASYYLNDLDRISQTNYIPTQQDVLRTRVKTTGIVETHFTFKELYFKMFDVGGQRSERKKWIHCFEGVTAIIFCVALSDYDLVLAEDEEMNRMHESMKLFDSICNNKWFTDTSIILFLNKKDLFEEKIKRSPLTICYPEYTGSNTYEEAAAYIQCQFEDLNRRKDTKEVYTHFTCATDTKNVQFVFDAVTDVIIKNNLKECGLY
The test is described as follows: FP.

Test [5] has as its target T5, rat His-Gαi3 (rat, UniProt P08753 1-354).
T5 construct: GDP-loaded in the buffers; Pull-down and FP methods name the rat protein; also called purified His-Gαi3; source: E. coli BL21(DE3), purified (HisPur Cobalt resin, buffer exchange on HiTrap Desalting)
The test is described as follows: fluorescence polarisation; fluorescently-labeled GIV peptide 25 nM, rat His-Gαi3 titrated 0.125–10 µM, room temperature; 50 mM Tris-HCl pH 7.4, 100 mM NaCl, 0.4% NP-40, 10 mM MgCl2, 5 mM EDTA, 2 mM DTT, 30 µM GDP; one-site binding model. Particulars: both partners purified.

In test [6] the target is T5, rat His-Gαi3. Briefly: pull-down; 10 µg GST or GST-GIV (~1.25 µM) immobilised on glutathione agarose beads; rat His-Gαi3 0.1–5 µM, 4 h at 4 °C; 50 mM Tris-HCl pH 7.4, 100 mM NaCl, 0.4% NP-40, 10 mM MgCl2, 5 mM EDTA, 2 mM DTT, 30 µM GDP; SDS-PAGE, Coomassie blue. The conditions noted are these: both partners purified.
In test [7] the target is T5, rat His-Gαi3. Briefly: fluorescence polarisation; competition: His-Gαi3 1 µM with fluorescently-labeled GIV 1671–1701 25 nM and increasing unlabeled GIV peptide or His-GIV-CT (0.5–20 µM); buffer with 30 µM GDP. The conditions noted are these: both partners purified.
Test [8] has as its target T6, rat GST-Gαi3 (rat, UniProt P08753 1-354).
T6 construct: source: E. coli BL21(DE3), purified (Glutathione Agarose, buffer exchange on HiTrap Desalting)
The test is described as follows: AlphaScreen or HTRF; His-GIV-CT on nickel-chelate donor beads, GST-Gαi3 on glutathione acceptor beads; 25–100 nM each (75 nM chosen), 10 and 5 µg/ml beads; 50 mM Tris-HCl pH 7.4, 100 mM NaCl, 0.4% NP-40, 5 mM MgCl2, 2 mM DTT, 30 µM GDP; room temperature, 2.5 h. The conditions noted are these: both partners purified.

Test [9] deals with B6. The test is described as follows: AlphaScreen or HTRF; competition: 75 nM His-GIV-CT and 75 nM GST-Gαi3 on beads with increasing untagged Gαi3 in solution; buffer with 30 µM GDP; one-site sigmoidal inhibition curve. The conditions noted are these: both partners purified.

T1 sequence (Q3V6T2 1660-1870 partner, one chain of several): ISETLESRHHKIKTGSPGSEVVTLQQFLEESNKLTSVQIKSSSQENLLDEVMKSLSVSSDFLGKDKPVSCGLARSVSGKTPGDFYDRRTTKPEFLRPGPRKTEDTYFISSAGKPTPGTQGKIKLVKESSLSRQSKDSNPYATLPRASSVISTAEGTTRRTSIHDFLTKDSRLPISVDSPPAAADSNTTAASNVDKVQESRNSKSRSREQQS
T2 sequence (P08754 whole entry): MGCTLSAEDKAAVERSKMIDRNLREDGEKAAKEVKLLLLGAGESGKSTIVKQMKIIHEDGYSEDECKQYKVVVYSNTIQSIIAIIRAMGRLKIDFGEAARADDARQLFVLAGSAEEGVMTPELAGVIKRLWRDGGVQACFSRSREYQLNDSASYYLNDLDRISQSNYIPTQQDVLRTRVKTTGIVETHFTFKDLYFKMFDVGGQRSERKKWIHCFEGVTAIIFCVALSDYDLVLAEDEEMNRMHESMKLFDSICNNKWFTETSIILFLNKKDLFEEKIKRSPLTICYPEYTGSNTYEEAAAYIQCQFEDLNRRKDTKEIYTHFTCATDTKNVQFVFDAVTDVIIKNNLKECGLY

`O=C(Nc1cccc(C(=O)Nc2ccc(S(=O)(=O)O)c3cc(S(=O)(=O)O)cc(S(=O)(=O)O)c23)c1)Nc1cccc(C(=O)Nc2ccc(S(=O)(=O)O)c3cc(S(=O)(=O)O)cc(S(=O)(=O)O)c23)c1` [NF023]: the “% inhibition at 10 μM” value on rat GST-Gαi3 [1] is “ATA and NF023 efficiently inhibited Gαi3-GIV binding as determined by AlphaScreen”. Further, at human Gαi3, the “1H-15N TROSY NMR titration, chemical shift perturbation” value is listed as “revealed significant Chemical Shift Perturbations (CSP) in only a fraction”. In addition, on rat His-Gαi3 [2] (read-out: IC50), the IC50 was roughly 5000 nM.

With `O=C(O)C1=CC(=C(c2ccc(O)c(C(=O)O)c2)c2ccc(O)c(C(=O)O)c2)C=CC1=O` [ATA], the “% inhibition at 10 μM” value at rat GST-Gαi3 [1] was “ATA and NF023 efficiently inhibited Gαi3-GIV binding as determined by AlphaScreen”. Also, the half-inhibitory concentration (IC50) at rat His-Gαi3 [2] (read-out: IC50) is roughly 5000 nM.

For the molecule `O=C(Nc1cc(C(=O)Nc2ccc(S(=O)(=O)O)cc2S(=O)(=O)O)cc(C(=O)Nc2ccc(S(=O)(=O)O)cc2S(=O)(=O)O)c1)Nc1cc(C(=O)Nc2ccc(S(=O)(=O)O)cc2S(=O)(=O)O)cc(C(=O)Nc2ccc(S(=O)(=O)O)cc2S(=O)(=O)O)c1` [NF449], on rat His-Gαi3 [2] (displacement of fluorescein-GIV 1671-1701 peptide (25 nM), GDP 30 µM, 10 mM MgCl2, pH 7.4, room temperature), the IC50 entry was “NF449 inhibits Gαi3-GIV binding with a potency similar to that of NF023”.

Turning to `Cc1ccc(C(=O)Nc2ccc(S(=O)(=O)O)c3cc(S(=O)(=O)O)cc(S(=O)(=O)O)c23)cc1NC(=O)c1cccc(NC(=O)Nc2cccc(C(=O)Nc3cc(C(=O)Nc4ccc(S(=O)(=O)O)c5cc(S(=O)(=O)O)cc(S(=O)(=O)O)c45)ccc3C)c2)c1` [suramin], the IC50 on rat His-Gαi3 [2] (read-out: IC50) is roughly 50000 nM. Moreover, the “AlphaScreen protein-protein binding inhibition” value on rat GST-Gαi3 [3] is “suramin is a less potent inhibitor than NF023 in the same AlphaScreen”.

B1: fluorescein-labeled GIV 1671–1705 peptide (peptide)
peptide: {5,6‑carboxyfluorescein}-KTGSPGSEVVTLQQFLEESNKLTSVQIKSSSQENL
notes: Made on MBHA resin, which would leave a C-terminal amide; also called fluorescently-labeled GIV peptide; source: synthetic peptide (Boc-SPPS, RP-HPLC purified)
As for B1, the Kd with rat His-Gαi3 [4] was 560 nM; with rat His-Gαi3 [5] it was roughly 500 nM.

B2: GST-GIV 1671–1755 (domain or fragment, human, UniProt Q3V6T2-3 1671-1755, looked up)
chain: KTGSPGSEVVTLQQFLEESNKLTSVQIKSSSQENLLDEVMKSLSVSSDFLGKDKPVSCGLARSVSGKTPGDFYDRRTTKPEFLRP
notes: source: E. coli BL21(DE3), purified (Glutathione Agarose)
B2: the binding result in the test with rat His-Gαi3 [6] is listed as “binds”.

B3: fluorescently-labeled GIV 1671–1701 peptide (peptide)
peptide: {5,6‑carboxyfluorescein}-KTGSPGSEVVTLQQFLEESNKLTSVQIKSSS
notes: Made on MBHA resin, which would leave a C-terminal amide; source: synthetic peptide (Boc-SPPS, RP-HPLC purified)
Take B3: the dissociation constant Kd with rat His-Gαi3 [4] stood at 460 nM. For the same molecule, the binding result with rat His-Gαi3 [7] is “binds”.

B4: fluorescein-labeled GIV 1671–1696 peptide (peptide)
peptide: {5,6‑carboxyfluorescein}-KTGSPGSEVVTLQQFLEESNKLTSVQ-NH2
notes: as for B3
Turning to B4, the Kd with rat His-Gαi3 [5] is roughly 650 nM.

B5: unlabeled GIV 1671–1701 peptide (peptide)
peptide: KTGSPGSEVVTLQQFLEESNKLTSVQIKSSS
notes: as for B3
B5: the binding result with rat His-Gαi3 [7] is “binds”.

On to KTGSPGSEVVTLQQFLEESNKLTSVQIKSSS (domain or fragment, human, source: purified) [GST-fused GIV 1671–1701], for which, in the test with rat His-Gαi3 [6], the binding result is recorded as “binds”.

As for B6, the binding result with rat His-Gαi3 [7] and with rat GST-Gαi3 [8] was “binds” throughout.

B7: fluorescein-labeled GIV 1671–1689 peptide (peptide)
peptide: {5,6‑carboxyfluorescein}-KTGSPGSEVVTLQQFLEES-NH2
notes: as for B3
Consider B7, for which, in the test with rat His-Gαi3 [5], the Kd is roughly 1000 nM.

Regarding KTGSPGSEVVTLQQFLEES (domain or fragment, human, source: purified) [GST-GIV 1671–1689], the binding result in the test with rat His-Gαi3 [6] is reported as “binds”.

B8: GST-GIV 1671–1705 (domain or fragment, human)
chain: KTGSPGSEVVTLQQFLEESNKLTSVQIKSSSQENL
notes: limits not spelled out in the text for this one; also called GST-fused GIV truncation construct of 35 amino acids; source: purified
Consider B8, for which the binding result with rat His-Gαi3 [6] was “binds”.

B9: untagged rat Gαi3 (natural protein, UniProt P08753 1-354, looked up)
chain: MGCTLSAEDKAAVERSKMIDRNLREDGEKAAKEVKLLLLGAGESGKSTIVKQMKIIHEDGYSEDECKQYKVVVYSNTIQSIIAIIRAMGRLKIDFGEAARADDARQLFVLAGSAEEGVMTSELAGVIKRLWRDGGVQACFSRSREYQLNDSASYYLNDLDRISQTNYIPTQQDVLRTRVKTTGIVETHFTFKELYFKMFDVGGQRSERKKWIHCFEGVTAIIFCVALSDYDLVLAEDEEMNRMHESMKLFDSICNNKWFTDTSIILFLNKKDLFEEKIKRSPLTICYPEYTGSNTYEEAAAYIQCQFEDLNRRKDTKEVYTHFTCATDTKNVQFVFDAVTDVIIKNNLKECGLY
notes: from a pET28b plasmid containing a thrombin cleavage site; also called untagged Gαi3; unlabeled Gαi3; source: E. coli BL21(DE3); rat His-Gαi3 cleaved with agarose-immobilized thrombin, passed over HisPur Cobalt beads, gel filtration (Superdex S200)
On to B9, for which, in test [9], the IC50 is roughly 1000 nM.

For KTGSPGSEVVTLQQFLEESNKLTSVQ (domain or fragment, human, source: purified) [GST-GIV 1671–1696], the binding result with rat His-Gαi3 [6] is listed as “binds”.
